This data set concerns the molecule itself. Kind of data set: SEC; gel filtration on a Sephadex 100 (G-100) size exclusion column; 20 mM HEPES, 10% glycerol, 150 mM NaCl, pH 7.8, 0.014% Fos-Choline-14; immunoglobulin of 150 kDa as reference for the tetrameric fraction. For orientation: Size exclusion chromatography separates by hydrodynamic size, large species first.

For orientation: stoichiometry N means the number of molecules, sites or subunits per partner or assembly.

B1: Δ1–854 hTRPA1 (human TRPA1 without its N-terminal ankyrin repeat domain and transmembrane segments S1–S4) (domain or fragment, UniProt O75762 855-1119, looked up)
chain: NCGIFIVMLEVILKTLLRSTVVFIFLLLAFGLSFYILLNLQDPFSSPLLSIIQTFSMMLGDINYRESFLEPYLRNELAHPVLSFAQLVSFTIFVPIVLMNLLIGLAVGDIAEVQKHASLKRIAMQVELHTSLEKKLPLWFLRKVDQKSTIVYPNKPRSGGMLFHIFCFLFCTGEIRQEIPNADKSLEMEILKQKYRLKDLTFLLEKQHELIKLIIQKMEIISETEDDDSHCSFQDRFKKEQMEQRNSRWNTVLRAVKAKTHHLEP
notes: keeps most of the S4-S5 linker (N855, C856), S5-S6 and the C-terminal domain; gene optimised for expression in insect cells; the vector pTriEx-3 is named; The tetramer is by gel filtration; a smaller monomeric fraction eluted as well; also called S1–S4 transmembrane domain deleted hTRPA1
Turning to B1, the “stoichiometry N” value is 4.

The values above are taken from publication PMC9576766, “The human TRPA1 intrinsic cold and heat sensitivity involves separate channel structures beyond the N-ARD domain” (Nature Communications, 2022).
